Assay results reported in the supplement of paper PMC9112550, “Optimization of the antimicrobial peptide Bac7 by deep mutational scanning” (BMC Biology, 2022).
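Note: peptides expressed intracellularly from a pBAD plasmid library in pooled LB shake-flask culture, induced with 0.3% L-arabinose, DNA abundance read by NGS, three biological replicates, DESeq2 with apeglm shrinkage.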

Each sequence was assayed on Escherichia coli TOP10 (assay: shrunken log2 fold change of peptide-encoding DNA abundance (4.5 h post-induction vs induction); higher = less antimicrobial activity (less host growth inhibition)). Details: time post-induction: 4.5 h; library: site-saturation at positions 5, 18, 19, 20.
In the case of RRIRQRPPRLPRPRPRPSKHPRP, the “shrunken log2 fold change” value is reported as -0.641.
In the case of RRIRIRPPRLPRPRPRPCCKPRP, the “shrunken log2 fold change” value is reported as -0.398.
In the case of RRIRMRPPRLPRPRPRPEWMPRP, the “shrunken log2 fold change” value is reported as 0.156.
With RRIRNRPPRLPRPRPRPKMIPRP the “shrunken log2 fold change” value was -0.495.
RRIRCRPPRLPRPRPRPFDSPRP was tested, and the “shrunken log2 fold change” value was -0.00174.
With RRIRCRPPRLPRPRPRPRIMPRP the “shrunken log2 fold change” value was -0.293.
In the case of RRIRWRPPRLPRPRPRPMFKPRP, the “shrunken log2 fold change” value is reported as 0.0191.
In the case of RRIRHRPPRLPRPRPRPPGKPRP, the “shrunken log2 fold change” value is reported as -0.155.
With RRIRARPPRLPRPRPRPGHQPRP the “shrunken log2 fold change” value was 0.304.
RRIRCRPPRLPRPRPRPGDMPRP was tested, and the “shrunken log2 fold change” value was -0.115.
In the case of RRIRFRPPRLPRPRPRPYCIPRP, the “shrunken log2 fold change” value is reported as -0.597.
For RRIRYRPPRLPRPRPRPYFKPRP, the “shrunken log2 fold change” value was -1.83.
With RRIRVRPPRLPRPRPRPIPIPRP the “shrunken log2 fold change” value was -0.106.
With RRIRERPPRLPRPRPRPAFLPRP the “shrunken log2 fold change” value was -0.289.
For RRIRPRPPRLPRPRPRPQTQPRP, the “shrunken log2 fold change” value was 0.115.
RRIRQRPPRLPRPRPRPCHEPRP was tested, and the “shrunken log2 fold change” value was -0.0663.
RRIRARPPRLPRPRPRPCARPRP was tested, and the “shrunken log2 fold change” value was 0.786.
For RRIRTRPPRLPRPRPRPSEWPRP, the “shrunken log2 fold change” value was -0.0236.
For RRIRERPPRLPRPRPRPRLCPRP, the “shrunken log2 fold change” value was -0.426.
With RRIRQRPPRLPRPRPRPIVCPRP the “shrunken log2 fold change” value was -0.137.
For RRIRSRPPRLPRPRPRPYGCPRP, the “shrunken log2 fold change” value was -0.248.
With RRIRDRPPRLPRPRPRPRKVPRP the “shrunken log2 fold change” value was 0.187.
RRIRLRPPRLPRPRPRPCQHPRP was tested, and the “shrunken log2 fold change” value was -0.382.
For RRIRDRPPRLPRPRPRPGDYPRP, the “shrunken log2 fold change” value was 0.0583.
With RRIRPRPPRLPRPRPRPQDQPRP the “shrunken log2 fold change” value was -0.126.
With RRIRCRPPRLPRPRPRPTSSPRP the “shrunken log2 fold change” value was -0.11.
In the case of RRIRIRPPRLPRPRPRPKETPRP, the “shrunken log2 fold change” value is reported as -0.0675.
In the case of RRIRRRPPRLPRPRPRPIRSPRP, the “shrunken log2 fold change” value is reported as 0.022.
In the case of RRIRMRPPRLPRPRPRPCIDPRP, the “shrunken log2 fold change” value is reported as 0.428.
With RRIRLRPPRLPRPRPRPAFVPRP the “shrunken log2 fold change” value was 0.205.
With RRIRCRPPRLPRPRPRPTNKPRP the “shrunken log2 fold change” value was -0.0578.
RRIRSRPPRLPRPRPRPGVHPRP was tested, and the “shrunken log2 fold change” value was -0.035.
For RRIRIRPPRLPRPRPRPYFQPRP, the “shrunken log2 fold change” value was -0.511.
For RRIRCRPPRLPRPRPRPHHLPRP, the “shrunken log2 fold change” value was -0.808.
RRIRDRPPRLPRPRPRPKPNPRP was tested, and the “shrunken log2 fold change” value was 0.45.
With RRIRCRPPRLPRPRPRPAAHPRP the “shrunken log2 fold change” value was 0.37.
In the case of RRIRMRPPRLPRPRPRPNNWPRP, the “shrunken log2 fold change” value is reported as -0.0238.
For RRIRWRPPRLPRPRPRPKPAPRP, the “shrunken log2 fold change” value was 0.605.
In the case of RRIRDRPPRLPRPRPRPTVKPRP, the “shrunken log2 fold change” value is reported as -0.043.
In the case of RRIRHRPPRLPRPRPRPNKIPRP, the “shrunken log2 fold change” value is reported as -0.622.
In the case of RRIRFRPPRLPRPRPRPMVSPRP, the “shrunken log2 fold change” value is reported as -0.144.
RRIRPRPPRLPRPRPRPRLWPRP was tested, and the “shrunken log2 fold change” value was 0.917.
RRIRDRPPRLPRPRPRPELEPRP was tested, and the “shrunken log2 fold change” value was 0.05.
RRIRLRPPRLPRPRPRPLKNPRP was tested, and the “shrunken log2 fold change” value was -0.295.
With RRIRWRPPRLPRPRPRPNWHPRP the “shrunken log2 fold change” value was -0.00322.
For RRIRCRPPRLPRPRPRPAFGPRP, the “shrunken log2 fold change” value was 0.194.
For RRIRWRPPRLPRPRPRPRLCPRP, the “shrunken log2 fold change” value was 0.512.
In the case of RRIRCRPPRLPRPRPRPALCPRP, the “shrunken log2 fold change” value is reported as 0.185.
For RRIRERPPRLPRPRPRPFIPPRP, the “shrunken log2 fold change” value was -0.481.
RRIRDRPPRLPRPRPRPKACPRP was tested, and the “shrunken log2 fold change” value was 0.024.
With RRIRFRPPRLPRPRPRPCEQPRP the “shrunken log2 fold change” value was -0.00534.
RRIRVRPPRLPRPRPRPSIGPRP was tested, and the “shrunken log2 fold change” value was -0.197.
RRIRVRPPRLPRPRPRPAYGPRP was tested, and the “shrunken log2 fold change” value was -0.473.
RRIRTRPPRLPRPRPRPCTLPRP was tested, and the “shrunken log2 fold change” value was -0.314.
With RRIRPRPPRLPRPRPRPVAVPRP the “shrunken log2 fold change” value was 0.143.
RRIRSRPPRLPRPRPRPAAIPRP was tested, and the “shrunken log2 fold change” value was 2.36.
For RRIRYRPPRLPRPRPRPVEIPRP, the “shrunken log2 fold change” value was -0.00968.
For RRIRMRPPRLPRPRPRPYVGPRP, the “shrunken log2 fold change” value was 0.0299.
RRIRFRPPRLPRPRPRPNKMPRP was tested, and the “shrunken log2 fold change” value was -0.231.
For RRIRWRPPRLPRPRPRPTLDPRP, the “shrunken log2 fold change” value was 0.745.
For RRIRYRPPRLPRPRPRPPCPPRP, the “shrunken log2 fold change” value was -0.141.
RRIRSRPPRLPRPRPRPQDWPRP was tested, and the “shrunken log2 fold change” value was -0.0642.
With RRIRRRPPRLPRPRPRPDGIPRP the “shrunken log2 fold change” value was 0.282.
For RRIRKRPPRLPRPRPRPECGPRP, the “shrunken log2 fold change” value was 1.01.
For RRIRERPPRLPRPRPRPWYVPRP, the “shrunken log2 fold change” value was -0.612.
In the case of RRIRERPPRLPRPRPRPTKHPRP, the “shrunken log2 fold change” value is reported as -0.347.
RRIRQRPPRLPRPRPRPRIRPRP was tested, and the “shrunken log2 fold change” value was 0.024.
RRIRHRPPRLPRPRPRPDEIPRP was tested, and the “shrunken log2 fold change” value was -0.137.
For RRIRSRPPRLPRPRPRPQSMPRP, the “shrunken log2 fold change” value was -0.384.
For RRIRHRPPRLPRPRPRPIWMPRP, the “shrunken log2 fold change” value was -0.0859.
For RRIRARPPRLPRPRPRPGSMPRP, the “shrunken log2 fold change” value was 0.135.
For RRIRFRPPRLPRPRPRPFKTPRP, the “shrunken log2 fold change” value was -0.164.
RRIRSRPPRLPRPRPRPKHFPRP was tested, and the “shrunken log2 fold change” value was 0.0852.
RRIRCRPPRLPRPRPRPQEKPRP was tested, and the “shrunken log2 fold change” value was 0.0587.
With RRIRCRPPRLPRPRPRPCHAPRP the “shrunken log2 fold change” value was -0.191.
With RRIRNRPPRLPRPRPRPQQAPRP the “shrunken log2 fold change” value was -0.356.
In the case of RRIRVRPPRLPRPRPRPLRLPRP, the “shrunken log2 fold change” value is reported as 0.641.
With RRIRHRPPRLPRPRPRPFISPRP the “shrunken log2 fold change” value was -0.387.
RRIRVRPPRLPRPRPRPVYQPRP was tested, and the “shrunken log2 fold change” value was -0.243.
RRIRTRPPRLPRPRPRPTFEPRP was tested, and the “shrunken log2 fold change” value was -0.0371.
With RRIRQRPPRLPRPRPRPNHSPRP the “shrunken log2 fold change” value was -0.762.
For RRIRVRPPRLPRPRPRPWWFPRP, the “shrunken log2 fold change” value was -0.307.
With RRIRLRPPRLPRPRPRPLEWPRP the “shrunken log2 fold change” value was 0.0509.
With RRIRTRPPRLPRPRPRPIMCPRP the “shrunken log2 fold change” value was -0.255.
In the case of RRIRTRPPRLPRPRPRPDFYPRP, the “shrunken log2 fold change” value is reported as -0.241.
For RRIRCRPPRLPRPRPRPHARPRP, the “shrunken log2 fold change” value was 0.204.
RRIRARPPRLPRPRPRPWHNPRP was tested, and the “shrunken log2 fold change” value was -0.0874.
RRIRTRPPRLPRPRPRPFNAPRP was tested, and the “shrunken log2 fold change” value was -0.344.
RRIRRRPPRLPRPRPRPDVLPRP was tested, and the “shrunken log2 fold change” value was 0.0203.
RRIRKRPPRLPRPRPRPCMNPRP was tested, and the “shrunken log2 fold change” value was -0.279.
For RRIRSRPPRLPRPRPRPHCEPRP, the “shrunken log2 fold change” value was -0.0301.
In the case of RRIRARPPRLPRPRPRPIVIPRP, the “shrunken log2 fold change” value is reported as -0.194.
For RRIRHRPPRLPRPRPRPEISPRP, the “shrunken log2 fold change” value was 0.0458.
In the case of RRIRCRPPRLPRPRPRPFATPRP, the “shrunken log2 fold change” value is reported as 0.287.
In the case of RRIRTRPPRLPRPRPRPKFKPRP, the “shrunken log2 fold change” value is reported as -0.225.
RRIRPRPPRLPRPRPRPQTVPRP was tested, and the “shrunken log2 fold change” value was 0.184.
For RRIRDRPPRLPRPRPRPSKSPRP, the “shrunken log2 fold change” value was -0.223.
With RRIRLRPPRLPRPRPRPMKKPRP the “shrunken log2 fold change” value was 0.0162.
In the case of RRIRYRPPRLPRPRPRPARPPRP, the “shrunken log2 fold change” value is reported as 0.943.
For RRIRTRPPRLPRPRPRPRPLPRP, the “shrunken log2 fold change” value was 0.295.
For RRIRIRPPRLPRPRPRPNHQPRP, the “shrunken log2 fold change” value was -0.164.
With RRIRHRPPRLPRPRPRPHSPPRP the “shrunken log2 fold change” value was -0.468.
In the case of RRIRPRPPRLPRPRPRPIEAPRP, the “shrunken log2 fold change” value is reported as 0.0713.
RRIRWRPPRLPRPRPRPYANPRP was tested, and the “shrunken log2 fold change” value was -0.399.
In the case of RRIRDRPPRLPRPRPRPKGYPRP, the “shrunken log2 fold change” value is reported as -0.097.
RRIRKRPPRLPRPRPRPPFKPRP was tested, and the “shrunken log2 fold change” value was 0.498.
In the case of RRIRLRPPRLPRPRPRPHDQPRP, the “shrunken log2 fold change” value is reported as 0.276.
For RRIRERPPRLPRPRPRPIQWPRP, the “shrunken log2 fold change” value was 0.0338.
RRIRRRPPRLPRPRPRPWLDPRP was tested, and the “shrunken log2 fold change” value was -0.0721.
RRIRYRPPRLPRPRPRPLGEPRP was tested, and the “shrunken log2 fold change” value was -0.172.
For RRIRVRPPRLPRPRPRPGPHPRP, the “shrunken log2 fold change” value was 0.121.
With RRIRARPPRLPRPRPRPWFGPRP the “shrunken log2 fold change” value was 0.118.
In the case of RRIRMRPPRLPRPRPRPDLEPRP, the “shrunken log2 fold change” value is reported as 1.54.
In the case of RRIRDRPPRLPRPRPRPHANPRP, the “shrunken log2 fold change” value is reported as 0.0766.
In the case of RRIRLRPPRLPRPRPRPRYEPRP, the “shrunken log2 fold change” value is reported as -0.286.
RRIRFRPPRLPRPRPRPERLPRP was tested, and the “shrunken log2 fold change” value was 0.265.
For RRIRHRPPRLPRPRPRPWAAPRP, the “shrunken log2 fold change” value was -0.0958.
With RRIRRRPPRLPRPRPRPIMCPRP the “shrunken log2 fold change” value was 0.0545.
With RRIRKRPPRLPRPRPRPKTVPRP the “shrunken log2 fold change” value was 0.355.
For RRIRQRPPRLPRPRPRPMCEPRP, the “shrunken log2 fold change” value was -0.00149.
RRIRERPPRLPRPRPRPTCYPRP was tested, and the “shrunken log2 fold change” value was -0.673.
RRIRDRPPRLPRPRPRPWFTPRP was tested, and the “shrunken log2 fold change” value was -0.175.
For RRIRTRPPRLPRPRPRPIEKPRP, the “shrunken log2 fold change” value was -0.478.
In the case of RRIRFRPPRLPRPRPRPDAGPRP, the “shrunken log2 fold change” value is reported as 0.121.
In the case of RRIRSRPPRLPRPRPRPDHWPRP, the “shrunken log2 fold change” value is reported as -0.0678.
